Three molecules from PMC6158172, “A bidentate Polycomb Repressive-Deubiquitinase complex is required for efficient activity on nucleosomes” (Nature Communications, 2018) can be followed below.

By stoichiometry N is commonly meant the number of molecules, sites or subunits per partner or assembly.

First the molecules themselves.
B1: Calypso^43–404 (wild type), as in the Calypso^43–404–ASX^207–340 complex (enzyme, Drosophila melanogaster, UniProt Q7K5N4 43-404, looked up)
chain: ADGWLELESDPGLFTLLLKDFGCHDVQVEEVYDLQKPIESPYGFIFLFRWIEERRARRKIVETTAEIFVKDEEAISSIFFAQQVVPNSCATHALLSVLLNCNENNLQLGDTLSRLKTHTKGMSPENKGLAIGNTPELACAHNSHAMPQARRRLERTGAGVSSCRFTGEAFHFVSFVPINGQLFELDGLKPYPMNHGGWEDSEDWTDKFRRVMAERLGIATGEQDIRFNLMAVVPDRRIAITHKLKMLRTNQAIVSGTLQKLLKADEQGESGNGDSQRPDTPTTLLEPSAFTARDLQSLLKNLDTEIAINEQHLADENDRRHMFKVDASRRTHNYDKFICTFLSMLAHQGVLGELVSQHLLPS
notes: Calypso, deubiquitinase of the Drosophila PR-DUB, residues 43-404 (UCH domain, coiled-coil hairpin, ULD; lacks the C-terminal positively charged tail 405-471); Always handled together with ASX 207-340, with which it was co-expressed; two copies per 2:2 complex at high concentration; also called WT^(no tail); Calypso^(no tail); source: E. coli BL21 (DE3), co-expressed with ASX, purified …

Data set [1] concerns the molecule itself. Description: AUC; sedimentation velocity, c(s) analysis, 40 µM complex, 20 °C, 20 mM HEPES pH 7.8, 100 mM NaCl, 0.8 mM TCEP, 50,000 r.p.m.
Data set [2] deals with the molecule itself. Description: SEC-MALLS; Superdex 200 5/150 GL Increase, 20 mM HEPES pH 7.5, 100 mM NaCl; wild type injected at 90 and 45 μM, wild type and mutants at ~50 μM.
Data set [3] addresses B1. Description: AUC; sedimentation velocity, c(s) analysis, 40 µM complex, 20 °C, 20 mM HEPES pH 7.8, 100 mM NaCl, 0.8 mM TCEP, 50,000 r.p.m. Particulars: both partners purified.
For data set [4], the target named is T1, Calypso(N292R)^43–404, as in the Calypso(N292R)–ASX complex (Drosophila melanogaster, UniProt Q7K5N4 43-404, N292R).
T1 construct: Calypso, Drosophila, residues 43-404, N292R; Handled together with ASX 207-340; source: E. coli BL21 (DE3), co-expressed with ASX, purified (Ni-NTA, 3C cleavage, HiTrap Q, Superdex 200); not shown: His6, N-terminal, cleaved
T1 sequence (looked up): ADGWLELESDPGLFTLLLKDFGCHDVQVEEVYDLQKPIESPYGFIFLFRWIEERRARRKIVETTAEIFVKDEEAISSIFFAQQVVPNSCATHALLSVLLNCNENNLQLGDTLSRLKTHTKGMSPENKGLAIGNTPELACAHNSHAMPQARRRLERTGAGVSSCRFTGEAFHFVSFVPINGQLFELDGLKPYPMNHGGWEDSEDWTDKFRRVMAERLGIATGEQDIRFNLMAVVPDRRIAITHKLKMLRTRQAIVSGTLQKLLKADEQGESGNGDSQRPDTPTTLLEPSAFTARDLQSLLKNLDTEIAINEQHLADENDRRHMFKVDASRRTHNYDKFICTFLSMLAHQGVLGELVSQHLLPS
Description: SEC-MALLS; Superdex 200 5/150 GL Increase, 20 mM HEPES pH 7.5, 100 mM NaCl; wild type injected at 90 and 45 μM, wild type and mutants at ~50 μM. Particulars: both partners purified.

The target of data set [5] is T2, Calypso(L340A)^43–404, as in the Calypso(L340A)–ASX complex (Drosophila melanogaster, UniProt Q7K5N4 43-404, L340A).
T2 construct: Calypso, Drosophila, residues 43-404, L340A; Handled together with ASX 207-340; source: E. coli BL21 (DE3), co-expressed with ASX, purified (Ni-NTA, 3C cleavage, HiTrap Q, Superdex 200); not shown: His6, N-terminal, cleaved
T2 sequence (looked up): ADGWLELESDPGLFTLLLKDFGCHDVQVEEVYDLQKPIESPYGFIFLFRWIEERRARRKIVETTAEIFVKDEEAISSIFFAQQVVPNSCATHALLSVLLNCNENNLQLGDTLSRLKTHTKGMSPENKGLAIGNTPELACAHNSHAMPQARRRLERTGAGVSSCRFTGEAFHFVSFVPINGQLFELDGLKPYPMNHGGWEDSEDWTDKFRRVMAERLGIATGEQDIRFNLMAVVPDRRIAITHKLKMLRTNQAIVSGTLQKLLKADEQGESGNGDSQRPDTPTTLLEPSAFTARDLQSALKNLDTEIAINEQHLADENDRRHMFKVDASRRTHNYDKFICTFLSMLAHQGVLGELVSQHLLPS
Described as above. As to conditions: both partners purified.

In the case of B1, the “stoichiometry N” value in data set [1] was determined as 2.

B2: Calypso(M288R)^43–404, as in the Calypso(M288R)–ASX complex (enzyme, Drosophila melanogaster, UniProt Q7K5N4 43-404, looked up)
chain: ADGWLELESDPGLFTLLLKDFGCHDVQVEEVYDLQKPIESPYGFIFLFRWIEERRARRKIVETTAEIFVKDEEAISSIFFAQQVVPNSCATHALLSVLLNCNENNLQLGDTLSRLKTHTKGMSPENKGLAIGNTPELACAHNSHAMPQARRRLERTGAGVSSCRFTGEAFHFVSFVPINGQLFELDGLKPYPMNHGGWEDSEDWTDKFRRVMAERLGIATGEQDIRFNLMAVVPDRRIAITHKLKRLRTNQAIVSGTLQKLLKADEQGESGNGDSQRPDTPTTLLEPSAFTARDLQSLLKNLDTEIAINEQHLADENDRRHMFKVDASRRTHNYDKFICTFLSMLAHQGVLGELVSQHLLPS
notes: Calypso, Drosophila, residues 43-404, M288R; Handled together with ASX 207-340; source: E. coli BL21 (DE3), co-expressed with ASX, purified (Ni-NTA, 3C cleavage, HiTrap Q, Superdex 200); not shown: His6, N-terminal, cleaved
B2: the binding result in data set [2] is listed as “binds”.

B3: ASX^207–340 (Deubad domain of Additional Sex Combs), as in the Calypso^43–404–ASX^207–340 complex (domain or fragment, Drosophila melanogaster, UniProt Q9V727 207-340, looked up)
chain: DGKIDLETPDSILASTNLRALLNKQTFSLLPPLYQYNLIQLLPSVDREASESEAIRLSASCLNNEFFARACLEWRERLSEGEFTPENQLKLKTEAEREKNKLDPWKLKHFEPFWGEKNSRG
notes: Additional Sex Combs (ASX), Drosophila, Deubad domain, residues 207-340 with residues 258-270 omitted; Second open reading frame of the co-expression construct; also called ASX Deubad; source: E. coli BL21 (DE3), co-expressed with His6-Calypso, purified (Ni-NTA, HiTrap Q, Superdex 200)
On to B3, for which the results for the “stoichiometry N” value in data set [3], in data set [4] and in data set [5] were 1 ASX per Calypso (2:2), 1 ASX per Calypso (1:1) and 1 ASX per Calypso (1:1), respectively.
